What was measured:
[1] = target: HIV-1 integrase, wild type, full-length (HIV-1); test: SEC; analytical SEC of IN alone (or an equimolar mixture of two mutants); Shodex KW403-4F column on ice, 750 mM NaCl, 10 mM MgCl2, 20 mM HEPES-NaOH pH 7.0; 35 µl IN at 0.6 mg/ml with 25 µM ZnCl2 and 2.8 mM CHAPS
[2] = target: HIV-1 integrase, wild type, full-length (HIV-1); test: cross-linking; BS3 (2-0.2 mM), 3 µM IN or 1.5 µM each of two mutants, 0.75 M NaCl, 2 mM MgSO4, 25 µM ZnCl2, 25 mM Hepes-NaOH pH 7.5, 30 min at 18°C; SDS-PAGE, Sypro Orange
[3] = target: HIV-1 integrase, wild type, full-length (HIV-1); test: SEC; analytical SEC as for IN alone, but 0.3 mg/ml LEDGF IBD pre-incubated with IN on ice for 5 min before injection; Shodex KW403-4F on ice, 750 mM NaCl, 10 mM MgCl2, 20 mM HEPES-NaOH pH 7.0

Substance | stoichiometry N [1] | stoichiometry N [2] | stoichiometry N (per IN tetramer) [3]
HIV-1 integrase, wild type, full-length (enzyme) | 4 | 4 | –
integrase binding domain of lens epithelium derived growth factor (LEDGF IBD) (from UniProt O75475 1-435) (domain or fragment) | – | – | 4

— PMC2705190
